B3: QcrB, cytochrome b subunit of the cyt bcc complex (natural protein, Corynebacterium glutamicum, UniProt Q79VE9 1-539, looked up)
chain: MSLATVGNNLDSRYTMASGIRRQINKVFPTHWSFMLGEIALYSFIVLLLTGVYLTLFFDPSITKVIYDGGYLPLNGVEMSRAYATALDISFEVRGGLFIRQMHHWAALLFVVSMLVHMLRIFFTGAFRRPREANWIIGVVLIILGMAEGFMGYSLPDDLLSGVGLRIMSAIIVGLPIIGTWMHWLIFGGDFPSDLMLDRFYIAHVLIIPAILLGLIAAHLALVWYQKHTQFPGAGRTENNVIGIRIMPLFAVKAVAFGLIVFGFLALLAGVTTINAIWNLGPYNPSQVSAGSQPDVYMLWTDGAARVMPAWELYLGNYTIPAVFWVAVMLGILVVLLVTYPFIERKFTGDDAHHNLLQRPRDVPVRTSLGVMALVFYILLTVSGGNDVYAMQFHVSLNAMTWIGRIGLIVGPAIAYFITYRLCIGLQRSDREVLEHGIETGIIKQMPNGAFIEVHQPLGPVDDHGHPIPLPYAGAAVPKQMNQLGYAEVETRGGFFGPDPEDIRAKAKEIEHANHIEEANTLRALNEANIERDKNEGKN
notes: QcrB, cytochrome b subunit (haem bL, haem bH) of the cytochrome bcc complex, Corynebacterium glutamicum; has a 102 residue C-terminal extension; source: endogenous, purified from C. glutamicum membranes as part of the supercomplex (DDM, DEAE Sepharose, size exclusion)

Assays:
[1] = target: T1, cyt bcc-aa3 (III2-IV2) supercomplex; quinone sites of the cyt bcc complex (QcrB/QcrA) (Corynebacterium glutamicum, UniProt Q79VE8+Q79VE9); assay: cryo-EM structure, […] Å; type: binding; settings: 20 µM stigmatellin, 2.5 mM azide also present; Qo site, transition-state analogue; QcrB and His355 of QcrA
T1 construct: native supercomplex purified from C. glutamicum membranes in DDM; dimer of 13-subunit protomers; with Cytochrome bc1 complex cytochrome c subunit; Cytochrome c oxidase subunit 1; Cytochrome c oxidase subunit 2; Cytochrome c oxidase subunit 3; Cytochrome c oxidase polypeptide 4; Supercomplex subunit P29; Supercomplex subunit P20; Supercomplex subunit P12; Supercomplex subunit P8; Supercomplex subunit P6; ThiX
T1 sequence (Q79VE9 1-539): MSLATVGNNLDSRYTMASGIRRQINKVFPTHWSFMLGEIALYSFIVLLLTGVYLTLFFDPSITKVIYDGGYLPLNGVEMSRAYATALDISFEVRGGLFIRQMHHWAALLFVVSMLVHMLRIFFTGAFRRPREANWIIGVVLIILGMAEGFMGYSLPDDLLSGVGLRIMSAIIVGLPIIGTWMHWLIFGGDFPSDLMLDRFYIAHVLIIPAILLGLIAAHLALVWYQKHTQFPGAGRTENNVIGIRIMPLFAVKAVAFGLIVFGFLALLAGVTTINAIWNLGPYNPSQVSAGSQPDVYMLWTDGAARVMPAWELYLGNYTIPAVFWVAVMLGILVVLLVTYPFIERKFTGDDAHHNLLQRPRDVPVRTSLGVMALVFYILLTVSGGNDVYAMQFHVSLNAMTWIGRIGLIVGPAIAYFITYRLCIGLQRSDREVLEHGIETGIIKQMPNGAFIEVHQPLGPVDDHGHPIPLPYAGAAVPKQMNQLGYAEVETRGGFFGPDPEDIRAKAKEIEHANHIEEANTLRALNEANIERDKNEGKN
T1 sequence (Q79VE8 1-408): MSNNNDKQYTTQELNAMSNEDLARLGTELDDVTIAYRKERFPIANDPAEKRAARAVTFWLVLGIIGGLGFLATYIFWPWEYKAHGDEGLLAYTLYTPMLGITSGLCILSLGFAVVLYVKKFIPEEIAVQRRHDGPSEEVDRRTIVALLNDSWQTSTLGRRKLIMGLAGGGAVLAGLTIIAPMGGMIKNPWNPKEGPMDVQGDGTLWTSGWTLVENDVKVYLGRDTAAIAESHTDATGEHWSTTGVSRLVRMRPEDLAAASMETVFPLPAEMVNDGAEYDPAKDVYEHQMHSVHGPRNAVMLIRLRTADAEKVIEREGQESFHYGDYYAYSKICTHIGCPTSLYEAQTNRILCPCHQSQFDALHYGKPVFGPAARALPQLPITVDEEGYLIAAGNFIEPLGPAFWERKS

[2] = target: T2, cyt bcc-aa3 (III2-IV2) supercomplex; QcrB sites (Corynebacterium glutamicum, UniProt Q79VE9); assay: cryo-EM structure; absorption spectroscopy; type: binding; settings: co-purified endogenous pigment; narrow tunnel of QcrB near Qo site
T2 construct: native supercomplex purified from C. glutamicum membranes in DDM; dimer of 13-subunit protomers; with Cytochrome bc1 complex Rieske iron-sulfur subunit; Cytochrome bc1 complex cytochrome c subunit; Cytochrome c oxidase subunit 1; Cytochrome c oxidase subunit 2; Cytochrome c oxidase subunit 3; Cytochrome c oxidase polypeptide 4; Supercomplex subunit P29; Supercomplex subunit P20; Supercomplex subunit P12; Supercomplex subunit P8; Supercomplex subunit P6; ThiX
T2 sequence (Q79VE9 1-539): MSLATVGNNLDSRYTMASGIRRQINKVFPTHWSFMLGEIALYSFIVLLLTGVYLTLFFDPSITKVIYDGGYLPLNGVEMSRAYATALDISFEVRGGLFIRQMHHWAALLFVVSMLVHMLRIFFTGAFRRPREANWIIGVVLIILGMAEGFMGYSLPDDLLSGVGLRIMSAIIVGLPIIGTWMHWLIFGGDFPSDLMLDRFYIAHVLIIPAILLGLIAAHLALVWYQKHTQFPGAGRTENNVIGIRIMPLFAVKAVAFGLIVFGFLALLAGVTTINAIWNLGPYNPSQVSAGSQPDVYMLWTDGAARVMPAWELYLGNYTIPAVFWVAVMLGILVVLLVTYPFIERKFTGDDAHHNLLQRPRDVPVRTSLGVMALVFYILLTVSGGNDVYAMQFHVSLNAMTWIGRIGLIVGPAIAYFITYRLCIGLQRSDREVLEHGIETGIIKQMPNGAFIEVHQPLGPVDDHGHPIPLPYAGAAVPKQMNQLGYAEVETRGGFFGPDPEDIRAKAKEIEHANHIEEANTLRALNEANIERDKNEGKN

[3] = target: B3; assay: cryo-EM structure; supercomplex purified from C. glutamicum membranes in DDM, 10 mg/ml; with 20 µM stigmatellin and 2.5 mM sodium azide (2.8 Å) and as isolated (3.1 Å); settings: both partners purified
[4] = target: T3, CtaD, subunit of the cyt aa3 oxidase (haem a, haem a3, CuB) (Corynebacterium glutamicum, UniProt Q79VD7 1-584, His265 covalently bound to Tyr269); assay: as above; settings: both partners purified
T3 construct: CtaD, catalytic subunit (haem a, haem a3, CuB) of the cytochrome aa3 oxidase, Corynebacterium glutamicum; source: endogenous, purified from C. glutamicum membranes as part of the supercomplex (DDM, DEAE Sepharose, size exclusion)
T3 sequence (looked up): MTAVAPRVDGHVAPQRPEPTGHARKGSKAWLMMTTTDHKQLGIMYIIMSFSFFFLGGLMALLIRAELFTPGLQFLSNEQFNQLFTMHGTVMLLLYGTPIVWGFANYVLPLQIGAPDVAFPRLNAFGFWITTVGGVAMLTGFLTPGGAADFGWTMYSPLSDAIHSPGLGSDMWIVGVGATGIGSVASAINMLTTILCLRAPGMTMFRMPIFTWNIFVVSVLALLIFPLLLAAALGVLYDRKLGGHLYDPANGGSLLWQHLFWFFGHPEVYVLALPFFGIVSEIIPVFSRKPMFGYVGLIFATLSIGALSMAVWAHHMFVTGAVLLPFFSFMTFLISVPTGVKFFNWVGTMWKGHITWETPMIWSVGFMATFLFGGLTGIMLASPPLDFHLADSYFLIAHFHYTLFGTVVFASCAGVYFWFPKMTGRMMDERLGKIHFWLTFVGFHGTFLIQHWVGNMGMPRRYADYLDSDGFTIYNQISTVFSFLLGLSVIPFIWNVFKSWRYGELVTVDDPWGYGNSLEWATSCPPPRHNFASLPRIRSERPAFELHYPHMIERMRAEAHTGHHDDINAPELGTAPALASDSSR

[5] = target: the molecule itself; assay: as above

C/C=C(C)/C=C/C=C/[C@H](OC)[C@@H](C)[C@@H](OC)[C@@H](C)CCc1oc2c(O)c(OC)cc(OC)c2c(=O)c1C [stigmatellin] was tested, and the “cryo-EM structure, 2.8 Å” value [1] was “The cryo-EM map clearly resolves stigmatellin bound between FeS and haem bL”.

In the case of CC(C)=CCC/C(C)=C/C=C/C(C)=C/C=C/C(C)=C/C=C/C=C(C)/C=C/C=C(C)/C=C/C=C(\C)CCC=C(C)C [lycopene], the “cryo-EM structure; absorption spectroscopy” value [2] is reported as “a lycopene molecule is resolved in a narrow tunnel of QcrB”.

B1: CtaF, subunit of the cyt aa3 oxidase (natural protein, Corynebacterium glutamicum, UniProt Q8NNK3 1-143, looked up)
chain: MKSSAKLMYGPTVFMAAMAVIYIFATMHVSDGGSVKGVEWVGSVALVLSAGLTLMLGVYLHFTEVRVDVLPEDWEEAEVADKAGTLGFFSPSSIWPAAMSGAVGFLAFGVVYFHYWMIAVGLMLLIFTITKLNLQYGVPKEKH
notes: CtaF, subunit of the cytochrome aa3 oxidase, Corynebacterium glutamicum; source: endogenous, purified from C. glutamicum membranes as part of the supercomplex (DDM, DEAE Sepharose, size exclusion)
B1: binds [3].

B2: CtaE, subunit of the cyt aa3 oxidase (natural protein, Corynebacterium glutamicum, UniProt Q9AEL8 1-205, looked up)
chain: MTSAVGNTGMAAPQRVAALNRPNMVSVGTIVFLSQELMFFAGLFAMYFVSRANGLANGSWGEQTDHLNVPYALLITVILVSSSVTCQFGVFAAERGDVYGLRKWFLVTIILGSIFVIGQGYEYITLVGHGLTIQSSVYGSAFFITTGFHALHVIAGVMAFVVVLMRIHKSKFTPAQATAAMVVSYYWHFVDVVWIGLFITIYFIQ
notes: CtaE, subunit of the cytochrome aa3 oxidase, Corynebacterium glutamicum; source: endogenous, purified from C. glutamicum membranes as part of the supercomplex (DDM, DEAE Sepharose, size exclusion)
B2: binds [3].

B3: binds [4].

B4: QcrA, Rieske-type iron-sulfur subunit of the cyt bcc complex (natural protein, Corynebacterium glutamicum, UniProt Q79VE8 1-408, looked up)
chain: MSNNNDKQYTTQELNAMSNEDLARLGTELDDVTIAYRKERFPIANDPAEKRAARAVTFWLVLGIIGGLGFLATYIFWPWEYKAHGDEGLLAYTLYTPMLGITSGLCILSLGFAVVLYVKKFIPEEIAVQRRHDGPSEEVDRRTIVALLNDSWQTSTLGRRKLIMGLAGGGAVLAGLTIIAPMGGMIKNPWNPKEGPMDVQGDGTLWTSGWTLVENDVKVYLGRDTAAIAESHTDATGEHWSTTGVSRLVRMRPEDLAAASMETVFPLPAEMVNDGAEYDPAKDVYEHQMHSVHGPRNAVMLIRLRTADAEKVIEREGQESFHYGDYYAYSKICTHIGCPTSLYEAQTNRILCPCHQSQFDALHYGKPVFGPAARALPQLPITVDEEGYLIAAGNFIEPLGPAFWERKS
notes: QcrA, Rieske-type iron-sulfur (2Fe-2S) subunit of the cytochrome bcc complex, Corynebacterium glutamicum; Carries the 2Fe-2S cluster (ligands His335, His355); QcrA crosses the dimer; also called QcrA´ (the copy of the second protomer); Rieske homologous subunit; source: endogenous, purified from C. glutamicum membranes as part of the supercomplex (DDM, DEAE Sepharose, size exclusion)
B4: binds [3]; binds [5].

From PMC8795186, “Structural basis for safe and efficient energy conversion in a respiratory supercomplex” (Nature Communications, 2022)
